US20170002068A1 (YEDA RESEARCH AND DEVELOPMENT, published 2017)

B3: human amphiregulin (ligand, UniProt P15514 101-198, looked up)
chain: SVRVEQVVKPPQNKTESENTSDKPKRKKKGGKNGKNRRNRKKKNPCNAEFQNFCIHGECKYIEHLEAVTCKCQQEYFGERCGEKSMKTHSMIDSSLSK
notes: also called AREG; hAREG

Columns and labels:
human epigen = biological target: T1, human epigen (human, UniProt Q6UW88 24-104, limits assumed); test: SPR (BIAcore 3000), ligand in solution over AR30-coated surface
T1 construct: also called hEPG; EPG
Experimental: (§1) SPR was performed on a BIAcore 3000 instrument (BIAcore, Uppsala, Sweden). Proteins were diluted in 100 mM Na-acetate (pH 4.6) to 20 μg/ml and immobilized on a CM5 sensor chip using a standard protocol of amine coupling. The protein solution was flown over the chip for 5 minutes at a rate of 20 μl/min. […] The net signal was obtained by subtracting the blank signal (plain dextran matrix) from the signal recorded from the immobilized surface. The association phase for analyte binding to all ligands was followed for 4 minutes, and dissociation phases were monitored for 3 minutes. Surface regeneration between consecutive binding cycles included a 1 min injection of 2 mM NaOH. The response was monitored as a function of time (sensorgram). Multi-concentration data underwent fitting using the software BIAevaluation 3.2.

murine amphiregulin [1] = biological target: T2, murine amphiregulin (mouse, UniProt P31955 94-191, limits assumed); test: as above
T2 construct: also called mAREG; murine AREG
T2 sequence (looked up): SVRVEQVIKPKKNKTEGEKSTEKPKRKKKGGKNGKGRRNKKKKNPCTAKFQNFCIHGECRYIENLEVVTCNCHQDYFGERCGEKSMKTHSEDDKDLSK
Experimental: as §1

[2] = biological target: T3, murine heparin-binding EGF-like growth factor (mouse, UniProt Q06186 63-148, limits assumed); test: as above
T3 construct: also called mHB-EGF
T3 sequence (looked up): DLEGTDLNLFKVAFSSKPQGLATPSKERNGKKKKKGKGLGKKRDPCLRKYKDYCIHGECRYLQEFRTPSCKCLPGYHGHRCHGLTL
Experimental: as §1

human amphiregulin [3] = biological target: B3; test: as above
Experimental: as §1

[4] = biological target: T4, human heparin-binding EGF-like growth factor (human, UniProt Q99075 63-148); test: as above
T4 construct: also called hHB-EGF; HB-EGF
T4 sequence (Q99075 63-148 limits assumed): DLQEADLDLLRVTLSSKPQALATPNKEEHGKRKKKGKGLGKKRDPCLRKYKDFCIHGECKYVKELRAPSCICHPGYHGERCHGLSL
Experimental: as §1

[5] = biological target: T5, human transforming growth factor alpha (human, UniProt P01135 40-89); test: as above
T5 construct: also called hTGF-alpha; TGF-alpha
Experimental: as §1

[6] = biological target: T6, human epidermal growth factor (human, UniProt P01133 971-1023); test: as above
T6 construct: also called hEGF; EGF
T6 sequence (P01133 971-1023 limits assumed): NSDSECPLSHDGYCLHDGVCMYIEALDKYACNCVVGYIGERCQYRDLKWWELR
Experimental: as §1

human betacellulin = biological target: T7, human betacellulin (human, UniProt P35070 32-111); test: as above
T7 construct: also called hBTC; BTC
T7 sequence (looked up): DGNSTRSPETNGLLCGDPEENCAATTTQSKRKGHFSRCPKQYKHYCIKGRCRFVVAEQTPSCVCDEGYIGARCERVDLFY
Experimental: as §1

human neuregulin 1 = biological target: T8, human neuregulin 1 (human, UniProt Q02297-6 177-241, limits assumed); test: as above
T8 construct: also called hNRG1; NRG1
T8 sequence (looked up): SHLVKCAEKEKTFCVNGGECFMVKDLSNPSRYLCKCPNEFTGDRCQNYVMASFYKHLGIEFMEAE
Experimental: as §1

murine amphiregulin [7] = biological target: T2, murine amphiregulin; test: ELISA, wells coated with 400 ng/mL ligand, mAb 2 h, anti-mouse-HRP, ABTS, 415 nm (legend; the y axis has no title)
Experimental: (§2) Thereafter, wells were incubated for two hours with an anti-mouse antibody conjugated to HRP, followed by a 30 minute incubation with ATBS. Signals were determined using an ELISA reader (set at 415 nm). […] Thereafter, wells were incubated for two hours with an anti-mouse antibody conjugated to HRP, followed by a 30-min incubation with ATBS. Signals were determined using an ELISA reader (set at 415 nm). […] Thereafter, wells were incubated for two hours with an anti-mouse antibody conjugated to HRP, followed by a 20-min incubation with ATBS. Signals were determined using an ELISA reader (set at 420 nm).

[8] = biological target: T4, human heparin-binding EGF-like growth …; test: as above
Experimental: as §2

human amphiregulin [9] = biological target: B3; test: ELISA, wells coated with human AREG at 0, 10, 50, 100, 500 ng/mL, antibody 2 h, anti-mouse-HRP, ABTS, absorbance 415 nm
Experimental: Thereafter, wells were incubated for two hours with an anti-mouse antibody conjugated to HRP, followed by a 30 minute incubation with ATBS. Signals were determined using an ELISA reader (set at 415 nm).

[10] = biological target: T6, human epidermal growth factor; test: ELISA, wells coated with ligand at 400, 200, 100, 50, 25 and 10 ng/mL, mAb 1 µg/mL 2 h, anti-mouse-HRP, ABTS; absorbance 415 nm on the sheet
Experimental: as §2

[11] = biological target: T9, Epidermal Growth Factor Receptor (human, UniProt P00533 25-1210); test: cell-based or functional assay
[12] = biological target: T9, Epidermal Growth Factor Receptor; test: displacement of 125I-EGF (50 ng/mL) by unlabeled ligand on MCAS ovarian cancer cells, on ice
Experimental: (§3) The cells were later washed and lysed, and the associated radioactivity was determined. […] The cells were later washed and lysed in 1 N NaOH. Cell-associated radioactivity was determined. […] Washed immunocomplexes, along with whole extracts, were immunoblotted with the indicated antibodies.

[13] = biological target: T9, Epidermal Growth Factor Receptor; test: displacement of 125I-EGF (50 ng/mL) from MCAS ovarian cancer cells by unlabeled ligand, 3 h on ice, cell-associated radioactivity
Experimental: as §3

T1 sequence (Q6UW88 24-104 limits assumed): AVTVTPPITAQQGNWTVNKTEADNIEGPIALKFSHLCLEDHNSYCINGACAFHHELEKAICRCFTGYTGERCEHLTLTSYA

B1: AR30, anti-AREG monoclonal antibody (antibody, V domains shown)
VH: EVQLQQSGAELVRSGASVKLSCTASGFNIKDSYMHWVKQRPEQGLEWIGWVDPDNGDTEYAPEFQGRATLTADTFSSTAYLQLTSLTSEDTAVYYCNAPSTYGHYGFAYWGQGTLVTVSA
VL: DIVMTQAAPSVPVTPGESVSISCRSSKSLLHSNGKAYLYWFLQRPGQSPQLLIYRMSNLASGVPDRFSGSGSGTAFTLRISRVEAEDVGVYYCMQHLEYPLTFGAGTKLELKR
notes: Mouse hybridoma mAb raised against TRX-fused EGF-like domain of human AREG; they may cover only the variable regions; also called mAb AR30; AR30 mAb
With B1 the Kd (human epigen) was > 10 µM, the Kd (murine amphiregulin [1]) was > 10 µM and the Kd [2] was 6.65 µM. The Kd (human amphiregulin [3]) was 0.0017 µM, the Kd [4] was 0.08 µM and the Kd [5] was > 10 µM. The Kd [6] was > 10 µM, the Kd (human betacellulin) was > 10 µM and the Kd (human neuregulin 1) was > 10 µM.

B2: AR558, anti-AREG monoclonal antibody (antibody, V domains shown)
VH: EVQLQQSGAELVKPGASVKLSCTASGFNIKDTYMHWVKQRPEQGLEWIGRIDPANRSTKYDPKFQGKATITADTSSNTADLHLSSLTSEDTAVYYCARLYGDSVWYFDVWGAGTTVTVSS
VL: QIVLTQSPAILSASPGEKVTMTCRAGSSVNYIHWYQQKPGSSPKPWIYATSNLASGVPARFSGSGSGTSYSLTISRVEAEDAATYYCQQWSGYPPMLTFGAGTKLELKR
notes: Mouse hybridoma mAb generated in AREG knockout mice; they may cover only the variable regions; also called mAb AR558
B2: no binding (tested: 400 ng/mL coated ligand) (murine amphiregulin [7]); no binding (tested: 400 ng/mL coated ligand) [8]; binds (human amphiregulin [9]). B2: no binding (tested: 400 ng/mL coated ligand, mAb 1 µg/mL) [10].

B3 was tested, and the “endocytosis-mediated downregulation of EGFR (MCAS cells, 125I-EGF binding after stimulation)” value [11] was ~30%, the “fold lower binding affinity compared to EGF” value [12] was ~100 fold and the “IC50 (read off the curve)” value [13] was ~0.1 µg/mL.
